{
  "source": "paper PMC13342644",
  "about": "(2026)",
  "binders": {"B1": {"name": "Avi-tagged, biotinylated GDP-mannose transporter Vrg4 from Candida albicans (natural protein)", "chain": "MDSKHSTSSSSSGSLATRISNSGPISIAAYCLSSILMTVTNKYVLSGFSFNLNFFLLAVQSIVCIVTIGSLKSLNIITYRQFNKDEAKKWSPIAFLLVAMIYTSSKALQYLSIPVYTIFKNLTIILIAYGEVIWFGGKVTTMALSSFLLMVLSSVIAYYGDNAAVKSHDDAFALYLGYFWMLTNCFASAAFVLIMRKRIKLTNFKDFDTMYYNNLLSIPILLICSFIFEDWSSANVSLNFPADNRVTTITAMILSGASSVGISYCSAWCVRVTSSTTYSMVGALNKLPIALSGLIFFEAAVNFWSVSSIFVGFGAGLVYAVAKQKQQKEQSQQLPTTK", "modifications": "biotin (Avi tag biotinylated using BirA ligase)"}},
  "key": {"[1]": {"target": "NB2", "experiment": "ELISA"}, "[2]": {"target": "NB1", "experiment": "ELISA"}},
  "data": [
    {"binder": "B1", "values": [
      {"measurement": "Kd", "setting": "[1]", "value": 125, "unit": "nM"},
      {"measurement": "Kd", "setting": "[2]", "value": 109, "unit": "nM"}
    ]}
  ]
}
